# Measured values as given in US11541126B1, “Anti-ASGR1 antibody TLR8 agonist comprising conjugates and uses thereof” (Silverback Therapeutics, Inc., priority 2020, dated 2023).
# Positions count from the first letter of the chain named. Numbers in names are those of the source.
# T1: HepG2 cells (which express ASGR1) (Homo sapiens, UniProt P07306)
# T1 construct: endogenous in cells; host or cells: HepG2
# T1 sequence (P07306 1-291): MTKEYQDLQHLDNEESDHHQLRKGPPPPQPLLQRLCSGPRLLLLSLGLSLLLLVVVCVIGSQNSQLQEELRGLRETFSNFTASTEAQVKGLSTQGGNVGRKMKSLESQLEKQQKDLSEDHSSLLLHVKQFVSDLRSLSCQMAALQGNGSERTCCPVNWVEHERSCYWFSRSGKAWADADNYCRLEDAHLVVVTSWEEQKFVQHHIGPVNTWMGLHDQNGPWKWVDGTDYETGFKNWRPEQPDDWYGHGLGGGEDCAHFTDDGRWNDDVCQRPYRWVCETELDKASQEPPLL
# B1: hzG2D-28: humanized G2D clone; "G2D VL region ... of clones 1-16, 19-21, 26-29, 31, and 33 ... grafted into the human germline sequence VKI-L1 with JK4" (antibody, V domains shown)
# VH: QVQLVQSGAEVKKPGASVKVSCKASGYTFTGYYMHWVRQAPGQRLEWMGRINPNNGATNYNQNFKDKASLTVDTSASTAYMELSSLRSEDTAVYYCTSVNFYYWGQGTTVTVSS
# VL: DIQMTQSPSSLSASVGDRVTITCKASQVINSYLSWFQQKPGKAPKSLIYRANTLVDGVPSRFSGSGSGTDYSLTISSLQPEDFATYYCLQYAEFPYTFGGGTKVEIK
# modifications: Synthetic sequence hzG2.47D VH R66K, V67A, T68S, I69L, R71V, A93T, R94S; Synthetic sequence hzG2.5D VLa F71Y, T72S
# B2: hzG2D-29: humanized G2D clone; "G2D VL region ... of clones 1-16, 19-21, 26-29, 31, and 33 ... grafted into the human germline sequence VKI-L1 with JK4" (antibody, V domains shown)
# VH: B1 VH with R38K
# VL: B1 VL with Y71F, S72T
# modifications: Synthetic sequence hzG2.49D VH R38K, R66K, V67A, T68S, I69L, R71V, A93T, R94S; Synthetic sequence hzG2D VLa
# B3: hzG2D-30: humanized G2D clone; "G2D VL region ... of clones 22, 23, 30, 32, and 34-37 ... grafted into the human germline sequence VKI-O2 with JK4" (antibody, V domains shown)
# VH: B1 VH with R38K
# VL: B1 VL with F36Y, S46L, Y71F, S72T
# modifications: Synthetic sequence hzG2.49D VH R38K, R66K, V67A, T68S, I69L, R71V, A93T, R94S; Synthetic sequence hzG2D VLb
# B4: hzG2D-31: humanized G2D clone; "G2D VL region ... of clones 1-16, 19-21, 26-29, 31, and 33 ... grafted into the human germline sequence VKI-L1 with JK4" (antibody, V domains shown)
# VH: B1 VH with L83F, S84H
# VL: B1 VL with Y71F, S72T
# modifications: Synthetic sequence hzG2.50D VH R66K, V67A, T68S, I69L, R71V, L82F, S82aH, A93T, R94S; Synthetic sequence hzG2D VLa
# B5: hzG2D-32: humanized G2D clone; "G2D VL region ... of clones 22, 23, 30, 32, and 34-37 ... grafted into the human germline sequence VKI-O2 with JK4" (antibody, V domains shown)
# VH: B1 VH with L83F, S84H
# VL: B1 VL with F36Y, S46L, Y71F, S72T
# modifications: Synthetic sequence hzG2.50D VH R66K, V67A, T68S, I69L, R71V, L82F, S82aH, A93T, R94S; Synthetic sequence hzG2D VLb
# B6: hzG2D-1: humanized G2D clone; "G2D VL region ... of clones 1-16, 19-21, 26-29, 31, and 33 ... grafted into the human germline sequence VKI-L1 with JK4" (antibody, V domains shown)
# VH: B1 VH with K67R, A68V, S69T, L70I, V72R, T97A, S98R, V110L
# VL: B1 VL with Y71F, S72T
# modifications: Synthetic sequence hzG2D VH V109L; Synthetic sequence hzG2D VLa
# Target: T1, HepG2 cells (which express ASGR1)
# Test: Guava HepG2 cell binding screen of humanized anti-ASGR1 clones
# Set-up: unit not given here
# Details: humanized G2D clones (Table 5); two numbers per cell, not explained
# Procedure: Hybridomas producing monoclonal antibodies (mAbs) specific for human ASGR1 were prepared from Balb/C mice immunized with ASGR1-AviHis at a service provider using their propriety protocol. Antibody heavy and light chain sequences were obtained, amplified, and cloned. Clone supernatants containing the expressed mAbs were screened for binding to a human ASGR1-IgG1Fc fusion protein, and those with a positive signal as measured by enzyme linked immunosorbent assay (ELISA) were screened for cell binding on HepG2 cells (which express ASGR1).
row,Molecule,Guava HepG2 Screen
1,B1,145/92
2,B2,189/108
3,B3,198/115
4,B4,168/95
5,B5,167/103
6,B6,32/19
